Reference: article PMC4293345 (Molecular and cellular neurosciences, 2014)
Read-outs that look alike come from different tables or passages of the source.

Experiments:
[1] = biological target: T1, MBP-tagged NCS-1 (neuronal calcium sensor-1) (UniProt P62166 1-190); assay: pull-down
[2] = biological target: T1, MBP-tagged NCS-1 (neuronal calcium …); assay: pull-down; remark: listed apart in the source

T1 sequence (P62166 whole entry): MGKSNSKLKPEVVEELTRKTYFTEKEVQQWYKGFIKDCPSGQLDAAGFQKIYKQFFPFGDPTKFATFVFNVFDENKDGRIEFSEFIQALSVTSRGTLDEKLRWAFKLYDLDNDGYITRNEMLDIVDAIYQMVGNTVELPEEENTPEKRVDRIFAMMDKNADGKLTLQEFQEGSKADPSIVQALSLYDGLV

B1: GST-tagged IQ-like domain of CaV2.1 (domain or fragment)
chain: LMALIRTALDIKIAKGGADKQQMDAELRKEMMAIWPNLSQKTLDLLVTPHKSTDLTVGKIYAAMMIMEYYRQSKAKKLQAMREEQNRTPLMFQRMEPPSPTQEGGPSQNALPSTQLD
What does the source list for B1?
relative binding (ratio of IQ-GST to NCS-1-MBP) [1]: 0.56 ± 0.06; relative binding (ratio of IQ-GST to NCS-1-MBP) [2]: 0.57 ± 0.06
